± gives the half width of the 95% confidence interval.
Legend:
[1] = folding stability dG unfold from trypsin proteolysis; higher = more stable
Procedure, shortened: (§1)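 Digests were run with trypsin and chymotrypsin at 11 concentrations in threefold dilutions, plus a no-protease condition, on designed mini-proteins in a PA-tagged cDNA display construct. The mini-proteins were under 80 residues, had no cysteine, and were kept only when AlphaFold2 dimer inter-PAE was above 15. After sequencing, Bayesian fitting of the counts gave K50, from which unfolding free energy was derived against a sequence-predicted unfolded-state K50 and a shared folded-state K50, per protease or combined.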

[2] = folding stability dG unfold from chymotrypsin proteolysis; higher = more stable
Procedure, shortened: as §1

[3] = folding stability dG unfold (combined trypsin and chymotrypsin); higher = more stable
Procedure, shortened: as §1

Row | Sequence | folding stability dG unfold [1] | folding stability dG unfold [2] | folding stability dG unfold [3]
1 | SPPETETYPIPNPEDGKPLMDITIERNPENGNWKVEIYWPGGKKKEVEFPPNETIPIDDLPPGFWVTITRSA [r9_1150_TrROS] | 0.532 ± 0.12 kcal/mol | 1.56 ± 0.069 kcal/mol | 1.21 ± 0.16 kcal/mol
2 | SAGGKTIMHMYMNPNGWFIRAKIKLDPDGKWKITDVEIYPMEMKYEDPNGKPREMPMFMIKIRIKPDSAGGS [r8_270_TrROS] | 3.03 ± 0.084 kcal/mol | 4.26 ± 0.046 kcal/mol | 3.78 ± 0.092 kcal/mol
3 | SAGGSAGGSAGGSMIIRIETKDGKIIEIEIKEDEDKTPEEIAKELAKKYNIKKIEIFEPSAGGSAGGSAGGS [r4_116_TrROS_Hall] | 3.27 ± 0.12 kcal/mol | 3.57 ± 0.062 kcal/mol | 3.44 ± 0.096 kcal/mol
4 | SASAAEEIERALLPLPNIPTAPLATFTLPDAPVEVVSYDPVTGRVLVRLTGTGALFVFDPETGEAELLPSAG [r14_359_TrMRF] | 2.56 ± 0.16 kcal/mol | 2.62 ± 0.054 kcal/mol | 2.7 ± 0.34 kcal/mol
5 | SAGGSAGGIKPGETVLIVFKDKPEILVFPPGMSEEERKAFPGAKFILVKVEKPELTEEELKALESAGGSAGG [r6_830_TrROS_Hall] | -0.623 ± 0.13 kcal/mol | -0.275 ± 0.18 kcal/mol | -0.232 ± 0.16 kcal/mol
6 | SAGGGSLSDIATVDTSSYTDPNNPASVTVTNVTIPDGSTVTVTYNPTTGTVTVTTATDGTTTTTTIPSSAGG [r13_960_JUSTAS] | 1.89 ± 0.19 kcal/mol | 0.917 ± 0.056 kcal/mol | 1.42 ± 0.15 kcal/mol
7 | SMTISIPGGITITIEPKPNSYTLTVSFPDGSTVTRPVDPSDLTSAIKAVIREALRRADPNITEEEIEKLLSA [r9_634_JUSTAS] | 4.39 ± 0.1 kcal/mol | 6.07 ± 0.17 kcal/mol | > 6 kcal/mol
8 | SAGGGMSTLVRLPPGGVEEREVPPGTEADLNAEFSPESKLVVRTFDPATGRWTETVYEPGGVPTVLSSSAGG [r13_74_JUSTAS] | 2.91 ± 0.082 kcal/mol | 3.65 ± 0.21 kcal/mol | 3.41 ± 0.32 kcal/mol
9 | SAGGKTVVLEFDSVEDLKAALPPGAEVEIVVIREDGSKKTITVPAKDLKLELKPGEKYRVVIKVKPKKSAGG [r13_461_TrROS_Hall] | 1.5 ± 0.09 kcal/mol | 2.49 ± 0.084 kcal/mol | 2.17 ± 0.12 kcal/mol
10 | SAGGSAGGSWFIRVEYKRPNGQPKTLQIPVPRDQLKKMSIDEIKDRAENLGLPPNVKIEWYPFSAGGSAGGS [r12_742_TrROS] | 1.04 ± 0.032 kcal/mol | 1.78 ± 0.061 kcal/mol | 1.55 ± 0.056 kcal/mol
11 | SAGGMELVSRKRLSTSADGSVTYLYEYYDPKTGKRYTLVVTVKTPDGKIKPKVFTADSEEEAKKIALESAGG [r13_26_JUSTAS] | 1.1 ± 0.06 kcal/mol | 1.56 ± 0.16 kcal/mol | 1.34 ± 0.11 kcal/mol
12 | SAGGSAGGSAGGAMTVETVELPSGEVVTLEYDPASGRVLTTVETPDSVERTEDPLEPPAASAGGSAGGSAGG [r7_63_JUSTAS] | 0.302 ± 0.015 kcal/mol | -0.403 ± 0.11 kcal/mol | -0.0846 ± 0.19 kcal/mol
13 | SAGGSAGGSSPSTSSERRIELPGGEEAEVFFYPSSGKILVRFPDREVEYYVEDDGKIVKKDPLSAGGSAGGS [r12_47_JUSTAS] | 0.478 ± 0.063 kcal/mol | 0.0525 ± 0.21 kcal/mol | 0.315 ± 0.13 kcal/mol
14 | SAMPIESVEFHPEEGVITLRFRAPAHPDAEKFEIEVVVDGAEAGEIEVEVDPETNEVRALVRVKIPKGASAG [r14_244_TrMRF] | 2.71 ± 0.1 kcal/mol | 4.23 ± 0.059 kcal/mol | 3.7 ± 0.25 kcal/mol
15 | SAGGSAGGSAKPPVTLTILVKNPETGEWVRLEVEFLPDGTVKITVTNPNGEKYTFTFKLPPSAGGSAGGSAG [r3_61_TrROS_Hall] | 3.67 ± 0.18 kcal/mol | 5.6 ± 0.16 kcal/mol | 5.6 ± 0.27 kcal/mol
16 | SAGGALEKILEAIENAPTSVPEVTVEIELPTGTLKATITNKGKPVLITIELTHPDGSKSTITLTFSLSAGGS [r16_642_TrMRF] | 2.78 ± 0.091 kcal/mol | 4.28 ± 0.079 kcal/mol | 3.78 ± 0.063 kcal/mol
17 | SAGGMLTLIDPETGEPFLTTPIATFTVPVTLTGPDGKPLETRTLRITLFRAYRPDGSPALILLVSPESAGGS [r8_214_TrMRF] | 3.7 ± 0.083 kcal/mol | 4.73 ± 0.061 kcal/mol | 4.3 ± 0.052 kcal/mol
18 | SAGGSMERTVELTYTFKDKPIKITITVTTDPETGTVTVPIEIETEDEKIKEPALEKAKELAEELLASAGGSA [r2_259_JUSTAS] | 0.133 ± 0.065 kcal/mol | 0.26 ± 0.13 kcal/mol | 0.301 ± 0.12 kcal/mol
19 | SAGGSAGGSASMKKKKFVVKTEEEAEKVIAELKAKVPKGTEVEIYIKNEDGTLEKYAIIKISAGGSAGGSAG [r3_92_JUSTAS] | 2.91 ± 0.11 kcal/mol | 3.15 ± 0.047 kcal/mol | 3.13 ± 0.15 kcal/mol
20 | SAGGSAGGMELISEKPAKVKYGDKEAEVWVKLVKIPNTDEVLVTLYFPGSGKPRIIPAKDVEIESAGGSAGG [r6_263_TrMRF] | 0.655 ± 0.1 kcal/mol | 0.836 ± 0.18 kcal/mol | 0.836 ± 0.19 kcal/mol
21 | SAGALEETTLPLPRPESLPDVSPEVLAALILALLSAVGVTVEVLSSDPANPVTAMVATRDGRVVLRALASAG [r5_80_JUSTAS] | 1.58 ± 0.049 kcal/mol | 2.34 ± 0.051 kcal/mol | 2.06 ± 0.068 kcal/mol

Row | Sequence | folding stability dG unfold [1] | folding stability dG unfold [2] | folding stability dG unfold [3]
22 | SASPWIQKLAEEIADELAKENGWEEVKFTVTLPIRMPMYRYDPNGKKEPHDMWMWIKFEVTARVPPGDPSAG [r14_232_TrROS] | 2.28 ± 0.061 kcal/mol | 2.01 ± 0.18 kcal/mol | 2.14 ± 0.24 kcal/mol
23 | SAGGEIEILLEDGTLLRIRVELDEDGNLRVTVELFRLEPPPAPEVVVERREEREERRVLFADSAEDLSAGGS [r16_802_TrROS_Hall] | 0.941 ± 0.06 kcal/mol | 2.27 ± 0.1 kcal/mol | 1.75 ± 0.15 kcal/mol
24 | SAGGNIKIEVYRSPDYYMIRIKLDGKPYEIPIDPGNTEEEAAEQALDNLQEKFPDKPIKIKDVEIYPYSAGG [r13_884_TrROS] | 0.473 ± 0.22 kcal/mol | 0.513 ± 0.42 kcal/mol | 0.566 ± 0.28 kcal/mol
25 | SAGGSAGGSMEELPEGAELIREEDGVAVVRNENGELLVVRRVDGKLEVRRFPPGMSIEEALAKSAGGSAGGS [r12_605_TrROS_Hall] | 2.95 ± 0.064 kcal/mol | 3.07 ± 0.04 kcal/mol | 3.05 ± 0.045 kcal/mol
26 | SAGEKKEKEKEKKKEEEEKKKKEEEKKKEEEKKKEKTLKLEFTLPDGSKIEIEMTVEELKKLGLSPEELSAG [r5_12_TrROS_Hall] | 0.836 ± 0.14 kcal/mol | 1.29 ± 0.12 kcal/mol | 1.03 ± 0.42 kcal/mol
27 | SAGGSAMIELEIKLPKEEAEKIAEELAKKLAEELGLEVKVVDVEIEYDPETDEVTIRVKIEVEPEPSAGGSA [r15_70_TrROS_Hall] | 2.68 ± 0.15 kcal/mol | 1.98 ± 0.1 kcal/mol | 2.48 ± 0.24 kcal/mol
28 | SAETVTITLPGATITVEKVDGKWIATVTKVEPGADKVTVEVTLTKVDEDGNTTTVTETVTIDAKTGKVLSAG [r14_724_TrROS_Hall] | 2.7 ± 0.32 kcal/mol | 2.92 ± 0.19 kcal/mol | 2.81 ± 0.23 kcal/mol
29 | SAGTIKELLEKLPGFSVEVDPDDGTVWVMFRMPDHYVMIEIPIDKEDGNIKGIRIHRHDPNGEPKPIPLSAG [r5_367_TrROS] | 1.44 ± 0.038 kcal/mol | 1.19 ± 0.22 kcal/mol | 1.44 ± 0.12 kcal/mol
30 | PPPDVPVETETKTSTSTLPDGSRLTTTTTTTRAPNGYYYDTTSVTTTVAPDGTVTTTSTSTTKGPLPAALLS [r1_129_JUSTAS] | 1.81 ± 0.12 kcal/mol | 1.51 ± 0.072 kcal/mol | 1.5 ± 0.27 kcal/mol
31 | SMKIKSIKIEPIRIGDEEYFLIPIEVDGEEIPPEEVKRLVEELFEKLGLPLDPVLLEDPESDIVLVLARGSA [r9_717_TrMRF] | 1.82 ± 0.053 kcal/mol | 1.34 ± 0.11 kcal/mol | 1.48 ± 0.16 kcal/mol
32 | SAGGMSALRIVAENLPEDARVVLPDGRVFPPGVELELPLEADLDVVVALDEDGRVHHVERVPLDRPLLSAGG [r13_441_TrMRF] | -0.352 ± 0.16 kcal/mol | -0.501 ± 0.21 kcal/mol | -0.389 ± 0.099 kcal/mol
33 | SAGGRYWKLTTPPDRPLRLVIEPVPLEDTPEEYGSRLYIPNTGKVYYFPLKYAQEILDLPWIERLEPVSAGG [r19_302_TrMRF] | 0.903 ± 0.096 kcal/mol | 0.343 ± 0.21 kcal/mol | 0.664 ± 0.11 kcal/mol
34 | MEKVLILAKIKLKGPDGEEAEIDFAVEISPEEATPELLKKVREEAEEIAEALKEKGYEVELEVEVVKLGEES [r1_221_TrMRF] | 3.62 ± 0.48 kcal/mol | 2.88 ± 0.24 kcal/mol | 3.25 ± 0.65 kcal/mol
35 | SAGMITISEEEARELGVPIGASEEEIKEALAARLREEGYKVEFPSVVKEKVDPKTGKVEYKIDINLKPLSAG [r5_23_JUSTAS] | 1.3 ± 0.051 kcal/mol | -0.104 ± 0.48 kcal/mol | 0.807 ± 0.18 kcal/mol
36 | SAGGSAGGSAGGSGLYLRLFDPGTGNVVAEVRVEIAPDGSLIAEARVADVPPVEDPEKASAGGSAGGSAGGS [r4_178_TrMRF] | 0.712 ± 0.048 kcal/mol | 2.39 ± 0.072 kcal/mol | 1.85 ± 0.17 kcal/mol
37 | SAGGEEVVVERPPAPPPITVTIEYDEETNTVTVTVTLPNGETLTITVEAPSLEEAEAAARELLEALSSAGGS [r16_319_TrROS_Hall] | 2.66 ± 0.28 kcal/mol | 2.96 ± 0.37 kcal/mol | 2.93 ± 0.31 kcal/mol
38 | SAGGSAGGSAKPLKKLVLLLKVKGPFEEVEKILNEEFGVKKIVAFKDPETDEVYALIYLGDPSAGGSAGGSA [r18_275_TrMRF] | 2.23 ± 0.052 kcal/mol | 2.86 ± 0.04 kcal/mol | 2.62 ± 0.085 kcal/mol
39 | SAGGSAGGSAGGMTAIIVESEEEAKKIAEEKGIKDVKFIPKGKPELLKPDVDKVIKINKKSAGGSAGGSAGG [r7_381_JUSTAS] | -0.282 ± 0.22 kcal/mol | 0.348 ± 0.075 kcal/mol | 0.102 ± 0.33 kcal/mol
40 | SAGGSAGGSAGMWIDEDTIRRLAALLGYPGKVEVVRLEDGSLLVVVYGDTEPGVLLFPLDSAGGSAGGSAGG [r11_410_TrMRF] | 3.02 ± 0.079 kcal/mol | 2.255 ± 0.017 kcal/mol | 2.59 ± 0.048 kcal/mol
41 | SAGGSAGSKPVTINWKITHPDGTPTTIPFSFPTEEQALEEALKAAEALAKEAGYPDFKIEIDEIIPSAGGSA [r15_698_TrMRF] | 0.0851 ± 0.091 kcal/mol | 0.47 ± 0.12 kcal/mol | 0.358 ± 0.091 kcal/mol
42 | SAGGSAKLTIELVISDMSPEDAEIAAENIRIELIKKGIPEEEIENVDIKVIVAPVYLDEDNNLILGSAGGSA [r15_684_TrMRF] | 0.533 ± 0.019 kcal/mol | 0.657 ± 0.035 kcal/mol | 0.694 ± 0.058 kcal/mol

— the supplement of paper PMC12764529
